Data from the nanobody polyreactivity screen of Harvey et al. (2022).

Assay: yeast display, Sf9 membrane polyspecificity reagent, FACS + sequencing; frameworks hold sequencing errors
Outline: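 Genes from sorted yeast were amplified by colony PCR, read by MiSeq 2 × 250 sequencing and filtered on CDR length. These cells carried a synthetic nanobody library in Saccharomyces cerevisiae BJ5465 and were sorted by FACS into low and high (top ~1%) gates on anti-HA and streptavidin fluorescence. Polyreactivity is labelled according to the gate of origin.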

Sequence	polyreactivity (PSR sort gate)
QVQLVESGGGLVQAGGSLRLSCAASGIIFRYYAMGWYRQAPGKERELVAAISSSTGNTYYADSVKGRFTISRDNAKNTVYLQMNSLKPEDTAVYYCAARTRQISIVGYNYWGQGTQVTVSS	high polyreactivity
QVQLVESGGGLVQAGGSLRLSCAASGIIFRYYAMGWYRQPPGKERELVASISRGGSTYYADSVKGRFTISRDNAKNTVYLQMNSLKPEDTAVYYCAADVYPVYLYGYEYWGQGTQVTVSS	high polyreactivity
QVQLVESGGGLVQAGGSLRLSCAASGIIFRYYTMGWYRQAPGKEREFVAAITGSSGSTYADSVKGRFTISRDNAKNTVYLQMNSLKPEDTAVYYCNADSYSIWVYGEYDYWGQGTQVTVSS	high polyreactivity
QVQLVESGGGLVQAGGSLRLSCAASGIIFSAYAMGWYRQAPGKERELVAAISSGGSTNYADSVKGRFTISRDNAKNTVYLQMNSLKPEDTAVYYCNAGERDVPNSYVAYREDYWGQGTQVTVSS	low polyreactivity
QVQLVESGGGLVQAGGSLRLSCAASGIIFSDYAMGWYRQAPGKERELVAAITGGGSTYYADSVKGRFTISRDNAKKTVDLQMNSLKPEDTAVFYCNADWARLWIRSTEVDYWGQGSQVTVSS	low polyreactivity
QVQLVESGGGLVQAGGSLRLSCAASGIIFSGYAMGWYRQAPGKERELVASIRSGSNTYYADSVKGRFTISRDNAKNTVYLQMNSLKPEDTAVYYCAARVVPATFRFIRYPHPYYYWGQGTQVTVSS	low polyreactivity
QVQLVESGGGLVQAGGSLRLSCAASGIIFSHNVMGWYRQAPGKERELVAAITYSGGSTYYADSVKGRFTISRDNAKNTVYLLMNSLKPEDTAVYYCNALGVSRRDYDYWGQGTQVTVSS	low polyreactivity
QVQLVESGGGLVQAGGSLRLSCAASGIIFSNYAMGWYRQAPGKERDLVAAITRSGGRTYYADSVKGRFTISRDNAKNTVYLQMNSLKPEDTAVYYCAATGRSGVLSSYYYWGQGTQVTVSS	high polyreactivity
QVQLVESGGGLVQAGGSLRLSCAASGIIFSPYAMGLYRQAPGKERELVAAISYSGGSTYYADSVKGRFTISRDNAKNTVYLQMNSLKPEDTAVYYCAVVYSYYLAVLGYCDYDYWGQGTQVTVSS	low polyreactivity
QVQLVESGGGLVQAGGSLRLSCAASGIIFSPYAMGWYRQAPGNERELVAAISYSGGSTYYADSVKGRFTISRDNAKNTVYLQMNSLKPEDTAVYYCAVVYSYYLAVLGYWDYDYWGQGTQVTVSS	low polyreactivity
QVQLVESGGGLVQAGGSLRLSCAASGIIFSSNAMGWYRQAPGKERELVAAISRRGGSTYYADSVKGRFTISRDNAKNTVYLQMNSLKPEDTAVYYCNALLYNGAGYDYWGQGSQVTVSS	high polyreactivity
QVQLVESGGGLVQAGGSLRLSCAASGIIFSSNAMGWYTQAPGKERELVAAISRRGGSTYYADSVKGRFTISRDNAKNSVYLQMNSLKPEDTAVYYCNALLYNGAGYDYWGQGTQVTVSS	high polyreactivity
QVQLVESGGGLVQAGGSLRLSCAASGIIFSSYAMGWYRQAPGKERELVAAITYNGGRTYYADSVKGRFTISRDNAKNTVYLQMNSLKPEDTAVYYCAARTYGGNVLRLDYWGQGTQVTVSS	high polyreactivity
QVQLVESGGGLVQAGGSLRLSCAASGIIFSWYAMGWYRQAPGKEREFVAAISKSGGRTYYADSVKGRFTISRDNAKNTVYLQMNSLKPEDTAVYYFATGISRDYIYIILRYDYWGQGTQVTVSS	low polyreactivity
QVQLVESGGGLVQAGGSLRLSCAASGIIFSYNAMGWYRQAPGKERELVAANNSSGGSTNYADSVKGRFTISRDNAKNTVYLQMNSLKPEDTAVYYCAARDATYYGVWRYYGIDDYWGQGTQVTVSS	low polyreactivity
QVQLVESGGGLVQAGGSLRLSCAASGIIFSYYALGWYRQAPGKERELVAAITRGGGRTYYADSVKGRFTISRDNAKNTVSLQMNSLKPEDTAVYYCNALSRYVENDYWGQGTQVTVSS	high polyreactivity
QVQLVESGGGLVQAGGSLRLSCAASGIIFSYYAMGWYRQAPGKERELVAAISSGGSTNYADSVKGRFTISRDNAKNTVYLQMNSLKPEDTAVYYCAPLYRDYDWIFEYWGQGTQVTVSS	low polyreactivity
QVQLVESGGGLVQAGGSLRLSCAASGIIFSYYAMGWYRQEPGKERELVAAIDSGGSTYYADSVKGRFTISRDNAKNTVYLQMNSLKPEDTAVYYCNADTARGVPVFPHDYWGQGTQVTVSS	low polyreactivity
QVQLVESGGGLVQAGGSLRLSCAASGIIFTDYAMGWYRQAPGKERELVAAISSGGGSTYYADSVKGRFTISRDNAKNTVYLQMNSLKPEDTAVYYCAAEGYLISGAGDYLYDYYWGQGTQVTVSS	high polyreactivity
QVQLVESGGGLVQAGGSLRLSCAASGIIFTINAMGWYRQAPGKERELVAAISWGTGTTYYADSVKGRFTISRDNAKNTVYLQINSLKPEDTAVYYCAADGYDTYGYWGQGTQVTVSS	low polyreactivity
QVQLVESGGGLVQAGGSLRLSCAASGIIFTINAMGWYRQAPGKERELVARISRSVGSTTYADSVKGRFTISRDNAKNTVYLQMNSLKPEDTAVYYCAAQPYGYSYHYHRPWGLDYWGQGTQVTVSS	low polyreactivity
QVQLVESGGGLVQAGGSLRLSCAASGIIFTIYTMGWYRQAPGKERELVAAITRSGGSTYYADSVKGRFTISRDNAKNTVYLQMNSLKPEDTAVYYCAAEWQYPDGDDVGSWRYYYWGQGTQVTVSS	high polyreactivity

Sequence	polyreactivity (PSR sort gate)
QVQLVESGGGLVQAGGSLRLSCAASGIIFTTYDMGWYRQAPGKERELVAAISSSTTNTYYADSVKGRFTISRDNAKNTVYLQMNSLKPEDTAVYYCAADGYSLDRYEYWGQGTQVTVSS	low polyreactivity
QVQLVESGGGLVQAGGSLRLSCAASGIIFTYAMGWYRPAPGKERELVAAIDWRGGRTYYADSVKGRFTISRDNAKNTVYLQMNSLKPEDTSVYYCGARLPGGTYYWGQGTQVTVSS	high polyreactivity
QVQLVESGGGLVQAGGSLRLSCAASGIIFTYAMGWYRQAPGKERELVAAIDWRGGRTYYADSVKGRFTISRDNAKNNVYLQMNSLKPEDTAVFFCAARLPGGTYYWGQGTQVTVSS	high polyreactivity
QVQLVESGGGLVQAGGSLRLSCAASGIIFVDYAMGWYRQAPGKEREFVAAITWSGGSTRYADSVKGRFTISRDNAKNTVYLQMNSLKPEDTAVYYCAALGYNVSSRGYYYWGQGTQVTVSS	low polyreactivity
QVQLVESGGGLVQAGGSLRLSCAASGIIFVENPMGWYRQAPGKERELVATITSGDTTNYADSVKGRFTISRDNAKNTVYLHMNSLKAEDTAVYYCAAERYEDFTEYDYWGQGTQVTVSS	low polyreactivity
QVQLVESGGGLVQAGGSLRLSCAASGIIFVRNARGWSRQAPGKERELVAAITGRGVSTYYADSVKGRFTISRDNAKNTVYLQMNSLNQEDTAVYYGAARYSSRGTYPRRYDYWGQGTQVTVSS	high polyreactivity
QVQLVESGGGLVQAGGSLRLSCAASGIIFVYYAMGWYRQAPGKERELVAAINWSGGSTYYADSVKGRFTISRDNAKNTVYLQMNSLKPEDTAVYYCAASSYITSDQRFYYWGQGTQVTVSS	high polyreactivity
QVQLVESGGGLVQAGGSLRLSCAASGIIFVYYDMGWYRQAPGKERELVASISRGGSTYYADSVKGRFTISRDNAKNTVYLQMNSLKPEDTAVYYCAAVPSYLGYWGQGTQVTVSS	high polyreactivity
QVQLVESGGGLVQAGGSLRLSCAASGIIFWKYAMGWYRQAPGKERELVAAISSRGGSTYYADSVKGRLTISRDNAKNTVYLQMNSLKPEDTAVYYCAGEDWYYGFDYWRQGTQVTVSS	high polyreactivity
QVQLVESGGGLVQAGGSLRLSCAASGIIFWYNARGWYRQAPGKERELVASISTGGRTYYADSVKGRFTISRDNAKNTVYLQMNSLKPEDTAVYYCAAASRVGFLYYYWGQGTQVTVSS	low polyreactivity
QVQLVESGGGLVQAGGSLRLSCAASGIIFWYYAMGWYRQAPGKERELVAAISSGGSTTYADSVKGRFTISRDNAKNTVYLQMNSLKPEDTAVYYCAAVWLSLFKVWVDTHEYDYWGQGTQVTVSS	low polyreactivity
QVQLVESGGGLVQAGGSLRLSCAASGIIFWYYAMGWYRQAPGKERELVASIDWSGGSTYYADSVKGRFTISRDNAKNTVYLQMKSLKPEDTAVYDCNAGSDIYWSAATYGYWGQGTQVTVSS	high polyreactivity
QVQLVESGGGLVQAGGSLRLSCAASGIIFYDNAMGWYRKAPGKERELVATITRSGDSTYYADSVKGRFTISRDNAKNTVYLQMNSLKPEDTAVYYCAKDTYGVLAYFQVSREYWGQGTQVTVSS	low polyreactivity
QVQLVESGGGLVQAGGSLRLSCAASGIIFYFYAMGWSRQAPGKERELVAAISSGGGSTYYADSVKGRFTISRDNAKNTVYLQMNSLKPEDTAVYYCAAKIGRNFDWGQGTQVTVSS	high polyreactivity
QVQLVESGGGLVQAGGSLRLSCAASGIIFYKNVMGWYRQAPGKERELVAAINRSGGRTYYADSVKGRFTISRDNAKNTVYLQMNSLKPEDTAVYYCARSGTVFGRTYDYWGQGTQVTVSS	high polyreactivity
QVQLVESGGGLVQAGGSLRLSCAASGIIFYLYTIGWYRQAPGKEREFVADISSGTTTYYADSVKGRFTISRDNAKNTVYLQMNSLKPEDTAVYYCNAQYNYYTWKLAYTFDYWGQGTQVTVSS	high polyreactivity
QVQLVESGGGLVQAGGSLRLSCAASGIIFYNKAMGWYRQAPGKERELVAAITWSDGSTYYADSVKGRFTISRDNAKTTVYLQMNSMKPEDTAVYYCARRSGDERRDGDYWGQGTQVTVSS	low polyreactivity
QVQLVESGGGLVQAGGSLRLSCAASGIIFYPYAMGWYRQAPGKESELVADITSGGGTNYAYSVKGRITISRDNAKNTVYLQMNSLKQEDTAVYYCAAEVRGYHWGTYYEFYYWGQGTQVTVSS	low polyreactivity
QVQLVESGGGLVQAGGSLRLSCAASGIIFYRNAMGWYRQAPGKERELVAGITSGGSTYYADSVKGRFTISRDNAKNTVYLQMNSLIPEDTAVYYCAAYYRASQRYLQYGYWGQGTQVNVSS	high polyreactivity
QVQLVESGGGLVQAGGSLRLSCAASGIIFYRYALGWYRQAPRTERELVAAISSSGTNTYYADSVKGRFTISRDNAKNTVYLQMNSLKPEDTAVYYCNADTLADRSTYDYWGQGTQVNVSS	low polyreactivity
QVQLVESGGGLVQAGGSLRLSCAASGIIFYRYAMGWYRQAPGKERELVATIRRSDGSTYYADSVKGRFTISRDNAKNTVYLQMKSLKPVDTAVYYCAARRPYSSGYDYWGQGSQVTVSS	high polyreactivity
